PMC12776482, “Structural and Functional Analysis of GGPPS Inhibition as a Therapeutic Mechanism for Acute Myeloid Leukemia (AML)” (Research Square, 2025)

Target: the molecule itself
Experiment: mass photometry; purified wild-type recombinant human GGPPS in solution; conditions not shown (Fig. S2)

B1: wild-type recombinant human geranylgeranyl pyrophosphate synthase (GGPPS) (enzyme)
chain: MEKTQETVQRILLEPYKYLLQLPGKQVRTKLSQAFNHWLKVPEDKLQIIIEVTEMLHNASLLIDDIEDNSKLRRGFPVAHSIYGIPSVINSANYVYFLGLEKVLTLDHPDAVKLFTRQLLELHQGQGLDIYWRDNYTCPTEEEYKAMVLQKTGGLFGLAVGLMQLFSDYKEDLKPLLNTLGLFFQIRDDYANLHSKEYSENKSFCEDLTEGKFSFPTIHAIWSRPESTQVQNILRQRTENIDIKKYCVHYLEDVGSFEYTRNTLKELEAKAYKQIDARGGNPELVALVKHLSKMFKEENE
notes: human geranylgeranyl pyrophosphate synthase (GGPPS, GGPS1), wild type; His6 tag removed with TEV protease; also called GGPP synthase; hGGPPS; source: E. coli (BL21 DE3), purified (Ni-NTA, TEV cleavage, second Ni-NTA, Superdex 200); not shown: His6, N-terminal, cleaved
B1 was tested, and the “stoichiometry N” value was 6.
